Substitutions are numbered along the chain they refer to. Names may count otherwise.
B1: G. stearothermophilus glyceraldehyde-3-phosphate dehydrogenase (GsGap, gapDH WT), wild type, SEQ ID NO:6 (Geobacillus stearothermophilus) (protein)
chain: MAVKVGINGFGRIGRNVFRAALKNPDIEVVAVNDLTDANTLAHLLKYDSVHGRLDAEVSVNGNNLVVNGKEIIVKAERDPENLAWGEIGVDIVVESTGRFTKREDAAKHLEAGAKKVIISAPAKNEDITIVMGVNQDKYDPKAHHVISNASCTTNCLAPFAKVLHEQFGIVRGMMTTVHSYTNDQRILDLPHKDLRRARAAAESIIPTTTGAAKAVALVLPELKGKLNGMAMRVPTPNVSVVDLVAELEKEVTVEEVNAALKAAAEGELKGILAYSEEPLVSRDYNGSTVSSTIDALSTMVIDGKMVKVVSWYDNETGYSHRVVDLAAYIASKGL
B2: G. stearothermophilus glyceraldehyde-3-phosphate dehydrogenase (GsGap) mutant mGapDH (mGap, gapDH M6), D34A/L35R/T36K relative to SEQ ID NO:6 (Geobacillus … (protein)
chain: B1 chain with D34A, L35R, T36K

Assays:
[1] = substrate: NC(=O)c1ccc[n+]([C@@H]2O[C@H](COP(=O)([O-])OP(=O)(O)OC[C@H]3O[C@@H](n4cnc5c(N)ncnc54)[C@H](OP(=O)(O)O)[C@@H]3O)[C@@H](O)[C@H]2O)c1; assay: purified protein, by the assay type; conditions: other: gapDH WT, cofactor, 50 mM tris pH 7.5, 340 nm
[2] = substrate: NC(=O)c1ccc[n+]([C@@H]2O[C@H](COP(=O)([O-])OP(=O)(O)OC[C@H]3O[C@@H](n4cnc5c(N)ncnc54)[C@H](OP(=O)(O)O)[C@@H]3O)[C@@H](O)[C@H]2O)c1; assay: Kinetics and cofactor specificity of triple mutant mGap (mGapDH); type: biochemical, G. stearothermophilus ATCC12980; conditions: other: mGapDH, cofactor, 50 mM tris pH 7.5, 340 nm
Method: Enzyme activity and optimization. All of the enzymes used in this work were assayed. The enzymes were assayed in 50 mM tris buffer pH 7.5, 5 mM MgCl, and 5 mM KCl which mirrors the final reaction conditions. The activity of NAD(P)H producing or consuming reactions were monitored at 340 nm. The activity of ATP consuming enzymes were monitored using a coupled assay with Zwf and NADP^+ at 340 nm.
To implement the “molecular rheostat” module, GapDH enzyme was engineered that efficiently uses NADP^+. […] Although the cofactor specificity of GsGap has adjusted before by sequence-based design, the mutant only slightly preferred NADP^+ over NAD^+. To more strongly flip the cofactor specificity of GsGap the crystal structure was examined and basic residues introduced into the loop region proximate to the 2′OH of NAD′ that may help stabilize binding of a 2′ phosphate in NADP^+. A series of mutations were made altering residues D34, L35, and T36 of SEQ ID NO:6. The kinetics and specificity of the best enzyme, a D34A/L35R/T36K triple mutant (herein referred to as mGap), were obtained.

Protein	Km [1]	Km [2]
B1	1500 ± 500 µM	
B2		300 ± 40 µM

Reference: patent publication USRE50957E1, “Molecular rheostat for cofactor balance” (The Regents of the University of California, priority 2016, dated 2026)
